# Results published in the RNAGym collection of RNA variant scans (doi:10.1093/nar/gkz1192).
# B1: CPEB3 Ribozyme (parent)
# chain: UAACAGGGGGCCACAGCAGAAGCGUUCACGUCGCAGCCCCUGUCAGAUUCUGGUGAAUCUGCGAAUUCUGCUGUAUAUCUC
# Variants of: B1
# Experiment: self-cleavage, relative activity (ratio to wild type); higher = more cleavage; in vitro, sequencing
# How it was run: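 After error-prone PCR and barcoding, CPEB3 ribozyme mutant libraries were transcribed with T7 RNA polymerase at 37°C for 5 hours, then given 15 min with DNase I before an EDTA stop, and they cleaved during both steps. Reverse transcription with template switching preceded Illumina sequencing. Relative activity divides a variant's cleaved/total read fraction by the unmutated ribozyme's. At least 5 reads were required per variant, and three batches were averaged.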
row,Variant,self-cleavage
1,UAACAGGGGGCCACAGCAGAAGCGCUCACGUAGCAGCCCCUGUCAGAUUCUGGUGAAUCUGCGAAUUCUGCUGUAUAUCUC,0.22
2,UAACAGGGGGCCACAGCAGAAGCGCUCACGUUGCAGCCCCUGUCAGAUUCUGGUGAAUCUGCGAAUUCUGCUGUAUAUCUC,0.14
3,UAACAGGGGGCCACAGCAGAAGCGAUCACGUCGCAGCCCCUGUCAGAUUCUGGUGAAUCUGCGAAUUCUGCGGUAUAUCUC,0.06
4,UAACAGGGGGCCACAGCAGAAGCGAUCACGUCGCAGCCCCUGUCAGAUUCUGGUGAAUCUGCGAAUUCUGCAGUAUAUCUC,0.3
5,UAACAGGGGGCCACAGCAGAAGCGAUCACGUCGCAGCCCCUGUCAGAUUCUGGUGAAUCUGCGAAUUCUGCCGUAUAUCUC,0.22
6,UAACAGGGGGCCACAGCAGAAGCGAUCACGUCGCAGCCCCUGUCAGAUUCCGGUGAAUCUGCGAAUUCUGCUGUAUAUCUC,0.23
7,UAACAGGGGGCCACAGCAGAAGCGCUCACGUCGCAGACCCUGUCAGAUUCUGGUGAAUCUGCGAAUUCUGCUGUAUAUCUC,0.46
8,UAACAGGGGGCCACAGCAGAAGCGCUCACGUCGCAGUCCCUGUCAGAUUCUGGUGAAUCUGCGAAUUCUGCUGUAUAUCUC,0.19
9,UAACAGGGGGCCACAGCAGAAGCGCUCAUGUCGCAGCCCCUGUCAGAUUCUGGUGAAUCUGCGAAUUCUGCUGUAUAUCUC,0.47
10,UAACAGGGGGCCACAGCAGAAGCGCUCAGGUCGCAGCCCCUGUCAGAUUCUGGUGAAUCUGCGAAUUCUGCUGUAUAUCUC,0.24
11,UAACAGGGGGCCACAGCAGAAGCGCUCAAGUCGCAGCCCCUGUCAGAUUCUGGUGAAUCUGCGAAUUCUGCUGUAUAUCUC,0.3
12,UAACAGGGGGCCACAGCAGAAGCGCUCACGUCGCAGCCCCUGUCAGUUUCUGGUGAAUCUGCGAAUUCUGCUGUAUAUCUC,0.23
13,UAACAGGGGGCCACAGCAGAAGCGCUCACGUCGCAGCCCCUGUCAGGUUCUGGUGAAUCUGCGAAUUCUGCUGUAUAUCUC,0.27
14,UAACAGGGGGCCACAGCAGAAGCGAUCACGUCGCAGCCCCUGUCAGAUUCUGGUGAAUCUGCGAAUUCAGCUGUAUAUCUC,0.27
15,UAACAGGGGGCCACAGCAGAAGCGAUCACGUCGCAGCCCCUGUCAGAUUCUGGUGAAUCUGCGAAUUCCGCUGUAUAUCUC,0.25
16,UAACAGGGGGCCACAGCAGAAGCGAUCACGUCGCAGCCCCUGUCAGAUUCUGGUGAAUCUGCGAAUUCUGCUGAAUAUCUC,0.25
17,UAACAGGGGGCCACAGCAGAAGCGAUCACGUCGCAGCCCCUGUCAGAUUCUGGUGAAUCUGCGAAUUCUGCUGCAUAUCUC,0.33

row,Variant,self-cleavage
1,UAACAGGGGGCCACAGCAGAAGCGAUCACGUCGCAGCCCCUGUCAGAUUCUGGUGAAUCUGCGAACUCUGCUGUAUAUCUC,0.23
2,UAACAGGGGGCCACAGCAGAAGCGAUCACGUCGCAGCCCCUGUCAGAUUCUGGUGAAUCUGCGAAAUCUGCUGUAUAUCUC,0.31
3,UAACAGGGGGCCACAGCAGAAGCGCUCACGUCGCAGCCCCUGUCAGAUUCUGGUGUAUCUGCGAAUUCUGCUGUAUAUCUC,0.24
4,UAACAGGGGGCCACAGCAGAAGCGCUCACGUCGCAGCCCCUGUCAGAUUCUGGUGCAUCUGCGAAUUCUGCUGUAUAUCUC,0.25
5,UAACAGGGGGCCACAGCAGAAGCGCUCACGUCGCAGCCCCUGUCAGAUUCUGGUGGAUCUGCGAAUUCUGCUGUAUAUCUC,0.25
6,UAACAGGGGGCCACAGCAGAAGCGCUCACGUCGCGGCCCCUGUCAGAUUCUGGUGAAUCUGCGAAUUCUGCUGUAUAUCUC,0.31
7,UAACAGGGGGCCACAGCAGAAGCGCUCACGUCGCUGCCCCUGUCAGAUUCUGGUGAAUCUGCGAAUUCUGCUGUAUAUCUC,0.24
8,UAACAGGGGGCCACAGCAGAAGCGAUCACGUCGCAGCCCCUGUCAGAUUCUGGAGAAUCUGCGAAUUCUGCUGUAUAUCUC,0.26
9,UAACAGGGGGCCACAGCAGAAGCGAUCACGUCGCAGCCCCUGUCAGAUUCUGGCGAAUCUGCGAAUUCUGCUGUAUAUCUC,0.27
10,UAACAGGGGGCCACAGCAGAAGCGAUCACGUCGCAGCCCCUGUCAGAUUCUGGGGAAUCUGCGAAUUCUGCUGUAUAUCUC,0.2
11,UAACAGGGGGCCACAGCAGAAGCGCUCACGUCGCAGCCCCUGUCAGAUUCUGGUGAAUCUGCGAAUUCUGCUGUGUAUCUC,0.23
12,UAACAGGGGGCCACAGCAGAAGCGCUCACGUCGCAGCCCCUGUCAGAUUCUGGUGAAUCUGCGAAUUCUGCUGUCUAUCUC,0.35
13,UAACAGGGGGCCACAGCAGAAGCGCUCACGUCGCAGCCCCUGUCAGAUUCUGGUGAAUCUGCGAAUUCUGCUGUUUAUCUC,0.34
14,UAACAGGGGGCCACAGCAGAAGCGCUCACGUCGCAGCCCCUGUCAGAUUCUGGUGAAUCUGCGAAUUCUGCUGUAUAUCUC,0.29
15,UAACAGGGGGCCACAGCAGAAGCGCUCACGUCGUAGCCCCUGUCAGAUUCUGGUGAAUCUGCGAAUUCUGCUGUAUAUCUC,0.25
16,UAACAGGGGGCCACAGCAGAAGCGCUCACGUCGGAGCCCCUGUCAGAUUCUGGUGAAUCUGCGAAUUCUGCUGUAUAUCUC,0.27
17,UAACAGGGGGCCACAGCAGAAGCGCUCACGUCGCAGCCCCUGUCAGAUUCUGGUGAAUCUGCGCAUUCUGCUGUAUAUCUC,0.45
